Patent publication US20040091945A1, “Peptides and methods of screening immunogenic peptide vaccines against Alzheimer's Disease” (priority 2002, published 2004)

biological target: recombinant HLA A0201 (Homo sapiens, UniProt P04439, D140Y/D185E/D98H/E176V/E277Q/G131W/G231S/I119V/I121R/I166T/I218V/L300P/L318F/N151K/N90K/P208A/P217A/Q86G/Q94H/R138H/R169H/T345S); experiment: Competition with radiolabelled control peptide for binding to recombinant HLA A0201; conditions: initial screening, 1 uM peptide, 1 nM rHLA A0201 (FIG. 1)
Procedure: FIG. 1: FIG. 1: Binding of radiolabelled peptide to 1 nM rHLA A0201 in absence or presence of 1 uM Abeta 1-42 or homologue-derived peptides (numbered 1-10; see Table 4). Binding is shown relative to measured binding without competition (maximal binding). The control peptide (ctrl): […] (SEQ ID NO. 1).
The binding (or lack thereof) of HLA-A2.01 epitopes derived from the Abeta homologue LV/EE (modifications at positions 17 and 18) was tested in an in vitro system to validate the computer predictions. Comparisons were made to predicted epitopes from the wild-type human Abeta 1-42 sequence. Recombinant HLA A0201 heavy chains were produced in E. coli and purified from inclusion bodies according to a standard procedure described elsewhere (Ostergaard Pederson, L. et al. 2001). Briefly, HLA 0201 heavy chains (1 nM were incubated for 4 hr. at room temperature with 1 nM iodinated control binding peptide ([…]-SEQ ID No. 1; this peptide has a score of 607.884 when submitted to the ILA Peptide Binding Prediction program at BIMAS), 1000 nM human β2M and graded doses (indicated in figures) of unlabelled peptide of interest (derived from Abeta or its homologue). Receptor bound and free peptide were separated by G25 spun column chromatography (Buus, S. et al. 1995) and counted in a gamma counter (Cobra). The peptides used in this study are listed in Table 4: […]

Row | Molecule | ability to compete away the binding of the control radiolabeled peptide to recombinant HLA-A201 molecules
1 | AEFRHDSGY | did not bind well
2 | FRHDSGYEV | did not bind well
3 | GLMVGGVVI | able to compete
4 | HHQKEEFFA | did not bind well
5 | IIGLMVGGV | able to compete
6 | KEEFFAEDV | did not bind well
7 | KLVFFAEDV | able to compete
8 | LMVGGVVIA | able to compete
9 | YEVHHQKEE | did not bind well
10 | YEVHHQKLV | did not bind well

biological target: T1, recombinant HLA A0201 (heavy chain produced in E. coli, with human beta2-microglobulin) (human); experiment: competition with iodinated [..] for recombinant HLA A0201; 1 uM unlabelled peptide; conditions: not given
T1 construct: also called rHLA A0201; HLA-A2.01

Row | Molecule | binding result
11 | LMVGGVVIA (6) [Peptide 10, LMVGGVVIA, derived from Abeta 1-42] | binds
12 | GLMVGGVVI [Peptide 1, GLMVGGVVI, derived from Abeta 1-42] | binds
13 | KLVFFAEDV [Peptide 2, KLVFFAEDV, derived from Abeta 1-42] | binds
14 | IIGLMVGGV [Peptide 6, IIGLMVGGV, derived from Abeta 1-42] | binds
